Among the data in the supplement of paper PMC10567573 are protein stability index values, retold here.

To fix the notation:
B1: DUSP5 (parent)
chain: YSEYPECCVDVKPISQEKIESERA
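Note: lentivirally expressed fusions sorted by FACS into six bins by GFP to DsRed ratio, PSI derived from sequencing read proportions per bin multiplied by bin number.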

This data set covers variants of B1. Nature of the data set: protein stability index of a GFP-peptide fusion (GPS, HEK-293T) (PSI 1-6); higher = more stable. The note with it: c terminus: a fixed tail appended.
On to YSEYPECYVDVKPISQEKIESERA, for which the protein stability index was found to be 2.15.

Consider YSEYPECRVDVKPISQEKIESERA, for which the protein stability index was 5.24.

Regarding YSEYPECHVDVKPISQEKIESERA, the protein stability index is 5.2.

Turning to YSEYPECAVDVKPISQEKIESERA, the protein stability index was determined as 4.56.

On to YSEYPECWVDVKPISQEKIESERA, for which the protein stability index stood at 1.32.

Consider YSEYPECLVDVKPISQEKIESERA, for which the protein stability index came out at 4.07.

As for YSEYPSCCVDVKPISQEKIESERA, the protein stability index was found to be 2.9.

As to YSEYPWCCVDVKPISQEKIESERA, the protein stability index stood at 3.98.

For the variant YSEYPTCCVDVKPISQEKIESERA, the protein stability index was 2.75.

With YSEYPACCVDVKPISQEKIESERA, the protein stability index is 2.63.

Turning to YSEYPNCCVDVKPISQEKIESERA, the protein stability index was determined as 3.74.

Take YSEYPYCCVDVKPISQEKIESERA: the protein stability index amounted to 1.44.

Take YSEYPCCCVDVKPISQEKIESERA: the protein stability index came to 2.6.

YSEYPPCCVDVKPISQEKIESERA: the protein stability index is 2.4.

Take YSEYPDCCVDVKPISQEKIESERA: the protein stability index turned out to be 4.55.

Take YSEYPKCCVDVKPISQEKIESERA: the protein stability index was 1.38.

With YSEYPRCCVDVKPISQEKIESERA, the protein stability index came out at 1.83.

Take YSEYPQCCVDVKPISQEKIESERA: the protein stability index turned out to be 2.67.

YSEYPHCCVDVKPISQEKIESERA: the protein stability index came out at 2.47.

In the case of YSEYPGCCVDVKPISQEKIESERA, the protein stability index is 3.36.

As for YSEYPFCCVDVKPISQEKIESERA, the protein stability index was determined as 2.28.

Take YSEYPVCCVDVKPISQEKIESERA: the protein stability index stood at 2.37.

Regarding YSEYPMCCVDVKPISQEKIESERA, the protein stability index amounted to 1.63.

YSEYPEHCVDVKPISQEKIESERA: the protein stability index was 4.17.

As for YSEYPEVCVDVKPISQEKIESERA, the protein stability index was determined as 3.95.

Consider YSEYPELCVDVKPISQEKIESERA, for which the protein stability index worked out at 3.75.

With YSEYPEGCVDVKPISQEKIESERA, the protein stability index came to 5.38.

In the case of YSEYPEFCVDVKPISQEKIESERA, the protein stability index is 2.28.

Regarding YSEYPEDCVDVKPISQEKIESERA, the protein stability index is 4.89.

With YSEYPEICVDVKPISQEKIESERA, the protein stability index was determined as 3.37.

For YSEYPETCVDVKPISQEKIESERA, the protein stability index was determined as 4.81.

In the case of YSEYPEYCVDVKPISQEKIESERA, the protein stability index worked out at 2.02.

As for YSEYPENCVDVKPISQEKIESERA, the protein stability index came out at 4.64.

Take YSEYPESCVDVKPISQEKIESERA: the protein stability index is 5.47.

In the case of YSEYPEQCVDVKPISQEKIESERA, the protein stability index stood at 5.35.

Consider YSEYPEWCVDVKPISQEKIESERA, for which the protein stability index came to 2.95.

With YSEYPEMCVDVKPISQEKIESERA, the protein stability index came to 3.81.

Regarding YSEYPEPCVDVKPISQEKIESERA, the protein stability index was 5.4.

For YSEYPERCVDVKPISQEKIESERA, the protein stability index was 4.26.

Consider YSEYPEECVDVKPISQEKIESERA, for which the protein stability index stood at 5.76.

YSEYPEKCVDVKPISQEKIESERA: the protein stability index was found to be 4.6.

With YSEYPEACVDVKPISQEKIESERA, the protein stability index is 4.16.

As to YSEYPECCVDAKPISQEKIESERA, the protein stability index is 4.23.

On to YSEYPECCVDSKPISQEKIESERA, for which the protein stability index was found to be 4.24.

Take YSEYPECCVDTKPISQEKIESERA: the protein stability index came to 3.95.

In the case of YSEYPECCVDEKPISQEKIESERA, the protein stability index was 4.25.

In the case of YSEYPECCVDNKPISQEKIESERA, the protein stability index stood at 4.51.

With YSEYPECCVDDKPISQEKIESERA, the protein stability index stood at 5.42.

YSEYPECCVDPKPISQEKIESERA: the protein stability index stood at 3.61.

Turning to YSEYPECCVDKKPISQEKIESERA, the protein stability index came to 4.17.

On to YSEYPECCVDWKPISQEKIESERA, for which the protein stability index came out at 4.09.

For YSEYPECCVDMKPISQEKIESERA, the protein stability index amounted to 4.09.

In the case of YSEYPECCVDYKPISQEKIESERA, the protein stability index came to 3.4.

As to YSEYPECCVDLKPISQEKIESERA, the protein stability index came to 3.84.

As to YSEYPECCVDCKPISQEKIESERA, the protein stability index turned out to be 3.38.

For YSEYPECCVDRKPISQEKIESERA, the protein stability index turned out to be 3.45.

As to YSEYPECCVDFKPISQEKIESERA, the protein stability index came to 3.53.

Turning to YSEYPECCVDQKPISQEKIESERA, the protein stability index worked out at 5.

Regarding YSEYPECCVDVKEISQEKIESERA, the protein stability index is 4.19.

On to YSEYPECCVDVKNISQEKIESERA, for which the protein stability index worked out at 3.96.

On to YSEYPECCVDVKVISQEKIESERA, for which the protein stability index turned out to be 2.85.

As to YSEYPECCVDVKCISQEKIESERA, the protein stability index was found to be 4.88.

YSEYPECCVDVKAISQEKIESERA: the protein stability index is 4.56.

Regarding YSEYPECCVDVKKISQEKIESERA, the protein stability index was 4.12.

Regarding YSEYPECCVDVKGISQEKIESERA, the protein stability index worked out at 4.03.

In the case of YSEYPECCVDVKSISQEKIESERA, the protein stability index is 3.33.

On to YSEYPECCVDVKWISQEKIESERA, for which the protein stability index was determined as 3.17.

In the case of YSEYPECCVDVKYISQEKIESERA, the protein stability index is 3.29.

Consider YSEYPECCVDVKFISQEKIESERA, for which the protein stability index came to 3.85.

As to YSEYPECCVDVKQISQEKIESERA, the protein stability index worked out at 4.14.

As to YSEYPECCVDVKHISQEKIESERA, the protein stability index amounted to 4.03.

In the case of YSEYPECCVDVKTISQEKIESERA, the protein stability index amounted to 4.18.

Turning to YSEYPECCVDVKMISQEKIESERA, the protein stability index was 3.5.

Regarding YSEYPECCVDVKDISQEKIESERA, the protein stability index stood at 4.47.

With YSEYPECCVDVKIISQEKIESERA, the protein stability index came out at 3.69.

YSEYPECCVDVKRISQEKIESERA: the protein stability index turned out to be 3.48.

On to YSEYPECCVDVKLISQEKIESERA, for which the protein stability index came to 3.22.

Regarding YSEYSECCVDVKPISQEKIESERA, the protein stability index is 4.73.

YSEYCECCVDVKPISQEKIESERA: the protein stability index was found to be 4.34.

Take YSEYMECCVDVKPISQEKIESERA: the protein stability index was 3.98.

Take YSEYQECCVDVKPISQEKIESERA: the protein stability index was 5.33.

For YSEYNECCVDVKPISQEKIESERA, the protein stability index stood at 5.38.

With YSEYFECCVDVKPISQEKIESERA, the protein stability index worked out at 3.18.

In the case of YSEYWECCVDVKPISQEKIESERA, the protein stability index was 1.21.

Turning to YSEYHECCVDVKPISQEKIESERA, the protein stability index stood at 3.39.

Turning to YSEYIECCVDVKPISQEKIESERA, the protein stability index was 3.96.

Turning to YSEYDECCVDVKPISQEKIESERA, the protein stability index was 5.42.

With YSEYYECCVDVKPISQEKIESERA, the protein stability index turned out to be 3.9.

On to YSEYKECCVDVKPISQEKIESERA, for which the protein stability index came to 5.16.

Take YSEYVECCVDVKPISQEKIESERA: the protein stability index turned out to be 4.45.

For YSEYRECCVDVKPISQEKIESERA, the protein stability index was found to be 3.48.

For YSEYTECCVDVKPISQEKIESERA, the protein stability index is 4.85.

For YSEYAECCVDVKPISQEKIESERA, the protein stability index turned out to be 4.47.

In the case of YSEYLECCVDVKPISQEKIESERA, the protein stability index was found to be 4.28.
